From US20230227577A1 (MYTHIC THERAPEUTICS, published 2023)

Columns and labels:
mouse DLL3 protein = target: T1, mouse DLL3 protein (mouse, UniProt O88516 33-490, limits assumed); experiment: Octet (DLL3 on AR2G tips), ELISA and FACS; values only in FIG. 3
T1 construct: also called murine DLL3
T1 sequence (looked up): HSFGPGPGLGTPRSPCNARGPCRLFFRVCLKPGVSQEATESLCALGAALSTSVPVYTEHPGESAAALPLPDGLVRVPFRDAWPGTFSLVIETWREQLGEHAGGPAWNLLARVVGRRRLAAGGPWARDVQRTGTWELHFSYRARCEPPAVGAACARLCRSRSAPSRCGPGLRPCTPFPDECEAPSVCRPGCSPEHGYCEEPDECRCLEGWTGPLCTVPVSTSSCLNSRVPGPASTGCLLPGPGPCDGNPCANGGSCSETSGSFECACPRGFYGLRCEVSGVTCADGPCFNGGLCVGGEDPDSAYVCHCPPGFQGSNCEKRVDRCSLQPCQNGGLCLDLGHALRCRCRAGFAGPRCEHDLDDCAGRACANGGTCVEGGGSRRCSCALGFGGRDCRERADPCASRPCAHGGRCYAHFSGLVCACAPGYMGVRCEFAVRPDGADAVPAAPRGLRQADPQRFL

mouse DLL3 on CHO cells = target: T2, mouse DLL3 on CHO cells (mouse, UniProt O88516 33-592); experiment: flow cytometry (FACS) on CHO cells expressing mouse DLL3
T2 construct: whole, on cells; also called CHO cells expressing mouse DLL3
T2 sequence (looked up): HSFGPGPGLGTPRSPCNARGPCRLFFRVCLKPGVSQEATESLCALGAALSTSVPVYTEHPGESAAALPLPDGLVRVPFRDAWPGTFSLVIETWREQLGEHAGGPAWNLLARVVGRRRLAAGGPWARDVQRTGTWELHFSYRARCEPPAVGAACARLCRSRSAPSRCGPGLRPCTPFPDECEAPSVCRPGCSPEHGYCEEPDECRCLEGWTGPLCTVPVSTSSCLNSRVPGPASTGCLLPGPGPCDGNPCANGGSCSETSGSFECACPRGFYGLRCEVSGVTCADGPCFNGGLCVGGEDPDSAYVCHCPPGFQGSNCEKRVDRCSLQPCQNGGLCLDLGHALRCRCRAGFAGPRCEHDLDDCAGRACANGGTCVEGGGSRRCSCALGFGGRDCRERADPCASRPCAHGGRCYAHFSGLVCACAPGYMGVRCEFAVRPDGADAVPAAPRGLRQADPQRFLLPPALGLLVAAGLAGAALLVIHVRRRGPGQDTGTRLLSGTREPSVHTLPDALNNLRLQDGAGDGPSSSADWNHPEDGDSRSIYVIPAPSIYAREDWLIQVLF
Description: (§1) Additional experiments were carried out to further characterize the binding properties of the anti-DLL3 constructs. Binding properties tested include dissociation constant (KD), off-rate (koff), binding to DLL3 protein by ELISA and binding to CHO cells expressing human, cyno or mouse DLL3. To obtain off-rate (koff), human biotinylated DLL3 was immobilized on Octet SA tips, and cynomolgus or mouse DLL3 was immobilized on Octet AR2G tips. For each DLL3 protein, the binding to a dilution series of each anti-DLL3 construct was measured using Fortebio Octet Red. The dissociation constant (KD), off-rate (koff) and other kinetic parameters for each anti-DLL3 construct were calculated using a 1:1 binding model. In addition, binding of these anti-DLL3 constructs to CHO cells expressing human, cyno or mouse DLL3 protein was analyzed using flow cytometry (FACS).

[1] = target: T3, recombinant human DLL3 protein (human, UniProt Q9NYJ7 27-492, limits assumed); experiment: Fortebio Octet Red, DLL3 immobilised on tips, dilution series of the VHH, 1:1 binding model; kon error 1.20E+02; Full R2 0.9994
T3 construct: also called rhu DLL3; human biotinylated DLL3
T3 sequence (looked up): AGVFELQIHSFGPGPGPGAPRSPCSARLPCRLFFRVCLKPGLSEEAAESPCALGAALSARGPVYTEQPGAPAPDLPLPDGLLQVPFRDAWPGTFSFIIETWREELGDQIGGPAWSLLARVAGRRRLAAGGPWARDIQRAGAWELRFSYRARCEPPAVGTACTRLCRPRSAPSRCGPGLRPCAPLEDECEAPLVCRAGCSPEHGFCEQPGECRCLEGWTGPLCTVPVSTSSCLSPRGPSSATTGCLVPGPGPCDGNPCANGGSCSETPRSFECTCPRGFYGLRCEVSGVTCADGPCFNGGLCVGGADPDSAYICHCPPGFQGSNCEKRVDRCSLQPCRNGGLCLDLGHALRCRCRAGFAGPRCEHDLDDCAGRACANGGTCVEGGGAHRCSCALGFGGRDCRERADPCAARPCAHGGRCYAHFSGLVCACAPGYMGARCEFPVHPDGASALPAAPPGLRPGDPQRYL
Description: as §1

[2] = target: T4, DLL3 target antigen coated on Octet SA tips (binning experiment) (Homo sapiens (Human), UniProt Q9NYJ7 27-492, Probably biotinylated for capture on streptavidin (SA) tips. The site is not stated.); experiment: Octet binning on DLL3-coated SA tips; competitor: 2HCE27
T4 sequence: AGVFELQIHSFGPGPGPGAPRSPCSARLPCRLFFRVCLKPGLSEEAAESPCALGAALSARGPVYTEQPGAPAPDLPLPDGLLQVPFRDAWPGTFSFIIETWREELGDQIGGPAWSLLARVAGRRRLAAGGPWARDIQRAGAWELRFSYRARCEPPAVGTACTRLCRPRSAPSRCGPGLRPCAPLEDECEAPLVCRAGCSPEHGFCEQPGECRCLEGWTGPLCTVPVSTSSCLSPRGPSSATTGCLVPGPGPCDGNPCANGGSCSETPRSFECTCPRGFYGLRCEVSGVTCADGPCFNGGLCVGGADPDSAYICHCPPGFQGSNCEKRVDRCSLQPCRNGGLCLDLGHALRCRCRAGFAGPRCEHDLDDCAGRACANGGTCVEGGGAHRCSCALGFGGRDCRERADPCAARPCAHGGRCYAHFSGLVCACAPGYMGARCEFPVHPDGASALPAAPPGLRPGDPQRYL
Description: (§2) Antibody binning experiments were carried out for 5 anti-DLL3 VHHs and an anti-human DLL3 BiTE (SEQ ID NO: 756). The target antigen was coated on a series of Octet SA tips. Each series of tips was first soaked in a periplasmic extract containing one specific VHH. After the response signals reached saturation, the tips were transferred to a mix of PEs containing again the first VHH (at the same concentration) plus a different VHH (termed secondary VHH) for each tip of the series. Secondary VHH that still bind the target antigen in the presence of the first VHH will show an increased response, as compared to the binding response of the first VHH alone. This was repeated for each VHH as primary VHH until all VHH were tested against each other in both directions (as primary and as secondary binder). From the response data, the bins were deduced for each VHH. 2HCE117 and 3HCE4 show competition with the human DLL3 BiTEs, whereas 3HCE56 and 3HCE87 show a partial competition.

[3] = target: T3, recombinant human DLL3 protein; experiment: Fortebio Octet Red, DLL3 immobilised on tips, dilution series of the VHH, 1:1 binding model; KD error 1.39E-11; Full R2 0.9994
Description: as §1

[4] = target: T4, DLL3 target antigen coated on Octet SA …; experiment: Octet binning on DLL3-coated SA tips; competitor: 3HCE4
Description: as §2

binding result (mouse DLL3 protein): binds
binding result (mouse DLL3 on CHO cells): binds
kon [1]: 80900 M⁻¹ s⁻¹
binning response (unit not given) [2]: 0
Kd [3]: 7.89 nM
binning response (unit not given) [4]: 53.4
B1: 2HCE27 anti-DLL3 VHH (VHH)
VHH: QVQLQESGGGLVQAGGSLRLSCAASGRTFRSYAMGWFRQAPGKEREFIAVIIMSDGSTSYADSVKGRFTISRDNAKNTLYLQMNSLKPEDTAVYYCAARRDYFTGVYDYWGQGTQVTVSS
notes: In the binning assay it was used as a periplasmic extract; also called anti-DLL3 (2HCE27)
